Source: patent publication US20250108100A1, “C-TERMINAL FRAGMENT OF APOLIPOPROTEIN E AND APPLICATION THEREOF IN INHIBITING y-SECRETASE ACTIVITY” (SYNPHATEC (SHANGHAI) BIOPHARMACEUTICAL TECHNOLOGY CO., LTD., priority 2022, published 2025)
Entries after “also recorded” stand apart in the source; their conditions may differ.

What was measured:
[1] = system: human pluripotent stem cell-induced neurons; assay: Endogenous Aβ40 in human pluripotent stem cell-induced neurons (lentivirus, ELISA); assay type: cell-based
Experimental: • a) Construction of lentivirus expression plasmids, lentivirus-GFP and lentivirus-ApoE CT, which can be specifically expressed in neurons. • b) The lentivirus vectors were cotransfected with coat protein vectors (PSPAX2 and PMD2G) in HEK 293T cell line. Cells were subcultured one day before transfection, and transfection was performed when the degree of cell adhesion reached 70%-80%. The transfection reagent was Polyjet (SignaGen). • c) 36-48 hours after the transfection, the cell culture was collected and filtered through a 0.22 μm filter membrane. • d) The filtered cell culture solution was ultracentrifuged. Centrifuged at 20000 rpm, 4° C. for 2 hours and 5 minutes. • e) After centrifugation, the supernatant was removed, and the precipitation of every three precipitates of 10 cm cell culture medium was resuspended with 50 μl of PBS. • f) The resuspended virus was subpackaged and stored in a −80° C. refrigerator for subsequent experiments.
48 hours after transfection of HEK 293T cells and N2A cells, or 4.5 days after lentivirus infection of neurons, media and lysates were collected. Aβ40 and Aβ42 in the culture medium and cell lysates were detected by an Aβ ELISA kit as indicated in the protocol. (Invitrogen Technology; KHB3481 for human Aβ40, KHB3441 for human Aβ42 and KMB3481 for mouse Aβ40).

[2] = system: HEK 293T cells expressing APP; assay: APP-expressing HEK 293T cells co-incubated with culture medium containing secreted ApoE2 or ApoE CT: α-CTF; assay type: cell-based, human; details: vs GFP control
Experimental: • a) A plasmid expressing the target protein in mammalian cells was constructed, and the protein expression promoter is CAG. • b) The target protein was expressed in HEK 293T cell line. Cells were subcultured one day before transfection, and transfection was performed when the degree of cell adhesion reached 70%-80%. The transfection reagent was lipofectamine2000 (ThermoFisher). • c) 4-6 hours post transfection, the medium were replaced with fresh cell culture medium. • d) 36-48 hours post transfection, the cells were lysed (10% 1M tris-HCl (pH=6.8), 4% SDS, 20% glycerol, 0.01% bromophenol blue), and the protein samples were collected and used for Western blot or stored in a −80° C. freezer. • e) Polyacrylamide gel electrophoresis. Before protein loading, the protein was boiled at 98° C. for 10 min, and then centrifuged at 12000 rpm for 10 min. Electrophoresis: 80V for the upper stacking gel; 120V for the lower separating gel. • f) Protein transfer. […]

B1: ApoE CT: C-terminal fragment of ApoE, positions 216-299 of SEQ ID NO: 12; SEQ ID NO: 33 (protein)
chain: ARMEEMGSRTRDRLDEVKEQVAEVRAKLEEQAQQIRLQAEAFQARLKSWFEPLVEDMQRQWAGLVEKVQAAVGTSAAPVPSDNH
Which “reduction in Aβ40 production” value ([1]; hiPSC-induced neurons, lentiviral infection) does the source give for B1 here?
The value was “approximately 46%”.

What about the “endogenous Aβ40” value ([1]; human neurons from pluripotent stem cell line, lentivirus) of the same molecule?
The value was “also reduces endogenous Aβ40”.

What about the “endogenous production of Aβ40” value ([1]; human pluripotent stem cell-induced neurons) of the same molecule?
Its value is “about 54 % of controls”.

And the “α-CTF produced by APP in cells co-incubated with protein in culture medium” value [2]?
The value was “does not significantly alter α-CTF levels; also recorded: does not change the α-CTF; also recorded: does not alter the α-CTF”.
